T1: human IL-12 (human, UniProt P29459 23-219; P29460 23-328)
T1 construct: recombinant human IL-12 heterodimer (p35/p40, disulfide-linked); also called hIL-12; rhIL-12
T1 sequence (looked up) 1: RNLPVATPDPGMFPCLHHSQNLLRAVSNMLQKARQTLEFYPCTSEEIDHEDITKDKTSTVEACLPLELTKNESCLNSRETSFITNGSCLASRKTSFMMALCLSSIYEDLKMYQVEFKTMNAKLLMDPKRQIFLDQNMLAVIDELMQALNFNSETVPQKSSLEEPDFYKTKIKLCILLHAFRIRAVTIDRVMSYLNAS
T1 sequence (looked up) 2: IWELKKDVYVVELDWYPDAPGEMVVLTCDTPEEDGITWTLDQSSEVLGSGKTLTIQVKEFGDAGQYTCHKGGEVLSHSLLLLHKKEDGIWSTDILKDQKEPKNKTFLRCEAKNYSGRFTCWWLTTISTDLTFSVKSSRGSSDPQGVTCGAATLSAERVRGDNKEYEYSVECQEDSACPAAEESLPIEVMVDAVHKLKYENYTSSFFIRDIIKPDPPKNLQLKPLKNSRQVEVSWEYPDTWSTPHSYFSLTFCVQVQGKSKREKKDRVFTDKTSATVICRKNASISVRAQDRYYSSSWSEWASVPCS

T2: human interleukin 12 (p70 heterodimer of p35 and p40) (human, UniProt P29459 23-219; P29460 23-328)
T2 construct: Recombinant human IL-12; p35 and p40 linked by a disulfide bridge; also called hIL-12; IL-12
T2 sequence (looked up) 1: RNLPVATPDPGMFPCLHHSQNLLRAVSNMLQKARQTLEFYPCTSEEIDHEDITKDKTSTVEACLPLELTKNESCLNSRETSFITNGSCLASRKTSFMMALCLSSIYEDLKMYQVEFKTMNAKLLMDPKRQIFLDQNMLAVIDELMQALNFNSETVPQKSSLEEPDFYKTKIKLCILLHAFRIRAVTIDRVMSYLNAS
T2 sequence (looked up) 2: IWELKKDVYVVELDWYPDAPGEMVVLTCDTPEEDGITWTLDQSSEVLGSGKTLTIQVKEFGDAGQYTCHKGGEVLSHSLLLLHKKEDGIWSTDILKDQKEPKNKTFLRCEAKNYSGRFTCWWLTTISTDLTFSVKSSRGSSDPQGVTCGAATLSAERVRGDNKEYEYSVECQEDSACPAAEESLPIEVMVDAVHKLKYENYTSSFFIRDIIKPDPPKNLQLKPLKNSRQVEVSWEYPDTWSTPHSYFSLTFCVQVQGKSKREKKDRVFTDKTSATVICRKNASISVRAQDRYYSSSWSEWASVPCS

T3: recombinant human IL-12 (rhIL-12) (human, UniProt P29459 23-219; P29460 23-328)
T3 sequence (looked up) 1: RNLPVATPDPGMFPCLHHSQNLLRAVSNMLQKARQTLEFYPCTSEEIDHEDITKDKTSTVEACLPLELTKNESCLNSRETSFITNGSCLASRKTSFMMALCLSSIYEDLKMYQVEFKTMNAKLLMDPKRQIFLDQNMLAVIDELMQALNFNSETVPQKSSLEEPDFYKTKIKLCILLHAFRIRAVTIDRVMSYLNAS
T3 sequence (looked up) 2: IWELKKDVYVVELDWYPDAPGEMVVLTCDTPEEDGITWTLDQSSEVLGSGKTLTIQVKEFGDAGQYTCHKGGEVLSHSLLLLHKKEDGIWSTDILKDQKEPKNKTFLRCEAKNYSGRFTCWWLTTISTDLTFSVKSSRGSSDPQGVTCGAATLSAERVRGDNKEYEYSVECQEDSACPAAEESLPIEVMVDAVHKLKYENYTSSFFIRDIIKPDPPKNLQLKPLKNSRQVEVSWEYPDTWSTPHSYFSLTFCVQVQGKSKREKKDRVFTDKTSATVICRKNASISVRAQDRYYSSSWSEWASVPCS


How the values were obtained:
human IL-12 [1] = target: T1, human IL-12; assay: SPR (BIAcore), IL-12 chip
Source text: The system utilizes the optical properties of SPR to detect alterations in protein concentrations within a dextran biosensor matrix. Proteins are covalently bound to the dextran matrix at known concentrations. […] To determine the off rate (koff), on rate (kₒₙ), association rate (Ka) and dissociation rate (Kd) constants, BIAcore kinetic evaluation software (version 2.1) was used.

human IL-12 [2] = target: T1, human IL-12; assay: cell-based or functional assay
human IL-12 [3] = target: T1, human IL-12; assay: RB assay: 125I-hIL-12 binding to PHA blasts
Description: (§1) PHA blast cells isolated as described above, were washed once and resuspended in binding buffer to a cell density of 2×10⁷ cells/ml. […] The cell pellet was examined for cell bound radioactivity using a gamma counter. […] Incubations were carried out in duplicate.

[4] = target: T2, human interleukin 12 (p70 heterodimer …); assay: BIAcore
[5] = target: T3, recombinant human IL-12 (rhIL-12); assay: cell-based or functional assay
[6] = target: T3, recombinant human IL-12 (rhIL-12); assay: receptor binding assay, 125I-hIL-12 on PHA blasts
Description: as §1

[7] = target: T3, recombinant human IL-12 (rhIL-12); assay: cell-based or functional assay; remark: listed apart in the source

Row | koff [4] | PHA assay IC50 [5] | PHA assay IC50 (M) p70:p40 1:0 [7] | PHA assay IC50 (M) p70:p40 1:20 [7] | PHA assay IC50 (M) p70:p40 1:50 [7] | Binder | other results
1 | – | – | – | – | – | 136-15 (scFv, V domains shown, scFv) VH: QVQLVQSGGGVVQPGRSLRLSCAASGFTFSSYGMHWVRQAPGKGLEWVAFIRYDGSNKYYADSVKGRFTISRDNSKNTLYLQMKSLRAEDTAVYYCKTHGSHDNWGQGTMVTVSS VL: SYVLTQPPSVSGTPGQRVTISCSGSRSNIGSNTVKWYQQLPGTAPKLLIYGNDQRPSGVPDRFSGSKSGTSASLAITGVQAEDEADYYCQTYDKGFTGSSVFGTGTKVTVLG | koff (human IL-12 [1]): 0.00074 s⁻¹; PHA assay IC50 (human IL-12 [2]): 2 nM; IC50 (human IL-12 [3]): 0.1 nM
2 | 0.000137 s⁻¹ | 0.08 nM | – | – | – | Y61-L94N (scFv, V domains shown) VH: QVQLVQSGGGVVQPGRSLRLSCAASGFTFSSYGMHWVRQAPGKGLEWVAFIRYDGSNKYYADSVKGRFTISRDNSKNTLYLQMKSLRAEDTAVYYCKTHGSHDNWGQGTMVTVSS VL: SYVLTQPPSVSGTPGQRVTISCSGGRSNIGSNTVKWYQQLPGTAPKLLIYGNDQRPSGVPDRFSGSKSGTSASLAITGVQAEDEADYYCQSYDRNTHPALLFGTGTKVTVL | –
3 | – | – | – | – | – | 149-5 (scFv, V domains shown, scFv) VH: QVQLVQSGGGVVQPGRSLRLSCAASGFTFSSYGMHWVRQAPGKGLEWVAFIRYDGSNKYYADSVKGRFTISRDNSKNTLYLQMKSLRAEDTAVYYCTTHGSHDTWGQGTMVTVSS VL: SYVLTQPPSVSGTPGQRVTISCSGGRSNIGSNTVKWYQQLPGTAPKLLIYGNDQRPSGVPDRFSGSKSGTSASLAITGVQAEDEADYYCQSYDSSLWGTRVFGTGTKVTVLG | koff (human IL-12 [1]): 0.00102 s⁻¹; PHA assay IC50 (human IL-12 [2]): 3 nM; IC50 (human IL-12 [3]): 0.12 nM
4 | 0.000131 s⁻¹ | 0.02 nM | – | – | – | Y61-L94Y (scFv, V domains shown) VH: QVQLVQSGGGVVQPGRSLRLSCAASGFTFSSYGMHWVRQAPGKGLEWVAFIRYDGSNKYYADSVKGRFTISRDNSKNTLYLQMKSLRAEDTAVYYCKTHGSHDNWGQGTMVTVSS VL: QSVLTQPPSVSGAPGQRVTISCSGSRSNIGSNTVKWYQQLPGTAPKLLIYGNDQRPSGVPDRFSGSKSGTSASLAITGLQAEDEADYYCQSYDRYTHPALLFGTGTKVTVL | IC50 [6]: 0.02 nM
5 | 0.000236 s⁻¹ | 0.06 nM | – | – | – | Y61-L94F (scFv, V domains shown) VH: QVQLVQSGGGVVQPGRSLRLSCAASGFTFSSYGMHWVRQAPGKGLEWVAFIRYDGSNKYYADSVKGRFTISRDNSKNTLYLQMKSLRAEDTAVYYCKTHGSHDNWGQGTMVTVSS VL: SYVLTQPPSVSGTPGQRVTISCSGGRSNIGSNTVKWYQQLPGTAPKLLIYGNDQRPSGVPDRFSGSKSGTSASLAITGVQAEDEADYYCQSYDRFTHPALLFGTGTKVTVL | –
6 | – | – | 2e-09 M | 5e-09 M | 4e-09 M | 136-15 (scFv) QVQLVQSGGGVVQPGRSLRLSCAASGFTFSSYGMHWVRQAPGKGLEWVAFIRYDGSNKYYADSVKGRFTISRDNSKNTLYLQMKSLRAEDTAVYYCKTHGSHDNWGQGTMVTVSSSYVLTQPPSVSGTPGQRVTISCSGSRSNIGSNTVKWYQQLPGTAPKLLIYGNDQRPSGVPDRFSGSKSGTSASLAITGVQAEDEADYYCQTYDKGFTGSSVFGTGTKVTVLG | –
7 | – | – | 9e-10 M | 1e-09 M | 1e-09 M | 149-6 (scFv) QVQLVQSGGGVVQPGRSLRLSCAASGFTFSSYGMHWVRQAPGKGLEWVAFIRYDGSNKYYADSVKGRFTISRDNSKNTLYLQMKSLRAEDTAVYYCTTHGSHDNWGQGTMVTVSSSYVLTQPPSVSGTPGQRVTISCSGGRSNIVSNTVKWYQQLPGTAPKLLIYGNDQRPSGVPDRFSGSKSGTSASLAITGVQAEDEADYYCQSYDRGFTGSRVFGTGTKVTVLG | –
8 | – | – | 6.5e-09 M | 7e-09 M | 4e-09 M | 149-5 (scFv) QVQLVQSGGGVVQPGRSLRLSCAASGFTFSSYGMHWVRQAPGKGLEWVAFIRYDGSNKYYADSVKGRFTISRDNSKNTLYLQMKSLRAEDTAVYYCTTHGSHDTWGQGTMVTVSSSYVLTQPPSVSGTPGQRVTISCSGGRSNIGSNTVKWYQQLPGTAPKLLIYGNDQRPSGVPDRFSGSKSGTSASLAITGVQAEDEADYYCQSYDSSLWGTRVFGTGTKVTVLG | –
